Holding throughout (assay): BLI, IgG
Assay [1] concerns the target T1, RSV postfusion F (postF), subtype B (respiratory syncytial virus, subtype B).
T1 construct: also called F ΔFP; Postfusion subtype B

The target in assay [2] is RSV prefusion F (preF), subtype A (respiratory syncytial virus, subtype A, UniProt P03420 26-513).
Assay [3] concerns the target T2, RSV postfusion F (postF), subtype A (respiratory syncytial virus, subtype A, UniProt P03420 26-513).
T2 construct: also called F ΔFP; Postfusion subtype A

For assay [4], the target named is RSV prefusion F (preF), subtype B (respiratory syncytial virus, subtype B).

From patent publication US20260258115A1 (MAPP BIOPHARMACEUTICAL, published 2026) come the findings set out here.

B1: ADI-14589 (antibody, V domains shown)
VH: QITLKESGPVLVKPSETLTLTCTVSGFSLSNAKMGVSWIRQPPGKALEWLAHIFSNDEKSYNTSLKNRLTISKDTSKSQVVLTMTNMDTVDTATYYCARINYYDSSGYYLANFDYWGQGTLVTVSS
VL: NIRLTQSPSSLSASVGDRVTITCRASQRIASYLNWYQQKPGHAPKLLIHAASSLQSGVPSRFSGSGSGTDFTLTINSLLPEDFATYYCQQSYSSPPHSSPPLTFGGGTKVEIK
For B1, the Kd in assay [1] was determined as 15.4 nM; in assay [2], 6.48 nM; in assay [3] it was 0.596 nM; in assay [4] it was 28.2 nM.

B2: ADI-14416 (antibody, V domains shown)
VH: QVQLVQSGAEVKKPGESLKISCKGSGDTFSRNWIGWVRQMPGKGLEWMGIIWPGDSDTRYRQFFQGQQGQVIISVDKSISTAYLQWSSLKASDTATYYCATSPYGLGSYYEHWGQGTLVTVSS
VL: NFMLTQPHSLSDSPGKTVVISCTRSSGSIASNYVQWYQQRPGSAPTTVIYEDNQRPSGVPDRFSGSIDSSSNSASLTISGLKTEDEADYYCQSYDSSNPYVFGTGTKVTVL
notes: also called Ab 82
For the molecule B2, the dissociation constant Kd in assay [1] amounted to 0.106 nM; in assay [2] it was 2.39 nM; in assay [3] it was 0.182 nM; in assay [4] it was 0.369 nM.

B3: ADI-14418 (antibody, V domains shown)
VH: QVQLVQSGAEVKKPGSSVKVSCKASGGTFTNYNINWVRQAPGQGLQWMGRISPTFAIANYAQKFQGRVTITADKSTSTAYMELSSLRSEDTAVYYCARAPHSGYDLALDYWGQGTLVTVSS
VL: DIQMTQSPSTLSASVGDRVTITCRASQSISSWLAWYQQKPGKAPKLLIYEASSLQSGVPSRFSGSGSGTEFTLTITSLQPDDFATYYCQQYNVYPWTFGQGTKVDIK
notes: also called Ab 84
For B3, the Kd in assay [1] was found to be 0.258 nM; in assay [2], 1.25 nM; in assay [3], 0.441 nM; in assay [4], 1.58 nM.

B4: ADI-14425 (antibody, V domains shown)
VH: QVQLQESGPGLVKPSETLSLTCTVSGGSVRSGSYYWSWIRQPPGKALEWIGYIYYSGSTNYNPALESRVTISVDTSKNQFSLMLSSVTAADTAVYYCARSAEGLARLYYFDHWGQGTLVTVSS
VL: QSVLIQPASVSGSPGQSITISCTGTSSDVGGYNYVSWYQQHPGKAPKLMIHDVSNRPSGVSNRFSGSKSGNTASLTISGLQAEDEADYYCSTYRSSNTLVVFGGGTKLTVL
notes: also called Ab 91
Consider B4, for which the dissociation constant Kd is 9.34 nM in assay [1], 48.1 nM in assay [2], 0.742 nM in assay [3] and 20.3 nM in assay [4].

B5: ADI-14573 (antibody, V domains shown)
VH: QVQLVQSGAEVKKPGASVKVSCKASGYTFTTYGISWVRQAPGQGLEWMGWISTYKTYTNYAQKFQGRVTMTTDTSTSTAYMELRSLRSDDTAVYYCAKVAGGSGSYGDYWGQGTLVTVSS
VL: QPVLTQPPSVSVAPGKTARITCGGNNIGSKSVHWYLQKPGQAPVLVIYYDSDRPSGIPERFSGSNSGNTATLTISRVEAGDEADFFCQVWDSSSDHWVFGGGTKVTVL
With B5, the dissociation constant (Kd) in assay [1] came to 3.55 nM; in assay [3], 0.373 nM; in assay [4], 21 nM. For the same molecule, the binding result in assay [2] was “no binding”.

B6: ADI-14421 (antibody, V domains shown)
VH: QVQLVQSGAEVKKPGESLKISCKGSGYNSSINWIGYWIGWVRQMPGKGLEWMGIINPGDSDTRYSPSFQGQVTISVDKSISTAYLQWGSLKASDTAMYYCARRAYRSGWHFDLWGRGTLVTVSS
VL: EIVMTQSPATLSVSPGERATLTCRASQSVSSNLAWYQQKPGQAPRLLIYGASTRATGIPARFSGSGSGTQFTLTISSLQSEDFAVYYCQHYNNWPPYTFGQGTKVEIK
notes: also called Ab 87
On to B6, for which the Kd in assay [1] amounted to 0.74 nM; in assay [3], 1.07 nM; in assay [4] it was 2.82 nM. Moreover, the binding result in assay [2] is given as “no binding”.
